Measured values from article PMC6389896 (Communications Biology, 2019).
“And” between values parts separate entries of the source, which are not always exact repeats. Identical values can stand only once. Blank lines part the entries; values can stand above or below the compound they belong to.

Columns and labels:
[1] = Sodium fluorescein leakage into CSF after BCCAO (BBB integrity); type: in vivo, mouse; conditions: individual animals; for CSF/blood fluorescent: 60 min after injection
Description: WT and Ager^−/− male mice (8 to 12-weeks-old and weighing 20–30 g) were used for the experiments. The animals were anaesthetised with 2.0% halothane and maintained with 0.5% halothane through a facemask. Brain ischaemia was induced via bilateral occlusion of the common carotid arteries (BCCAO) for 15 min using microvascular clips as described previously. Laser-Doppler flowmetry was used to measure cerebral cortical microperfusion (3 mm lateral to bregma). […] Rectal temperature was maintained at 36.5–37.5 °C by using a heat lamp and a blanket until the mice were completely alert. The control animals underwent a sham-operation that was identical with the exception of the occlusion. To quantify accumulative BBB leakages, 200 µl of sodium fluorescein (Sigma-Aldrich) at a concentration of 6 mg/ml in PBS was injected via the venous sinus of retro-orbital in the mice. […] Sixty minutes later, the CSF and blood were collected according to the protocol for sampling of CSF and blood from mice[80]. The fluorescence of CSF and serum were measured at 460 nm at an excitation wavelength of 355 nm by using a Fluoroscan Ascent FL luminometer (Labsystems. Wilmington, DE, USA). Results are presented as relative fluorescence units (CSF value/serum value) (%).

human esRAGE = human esRAGE (Homo sapiens, UniProt Q15109); assay: Plate competition assay of oxytocin-RAGE complex formation by RAGE ligands and RAGE domains; type: binding; conditions: esRAGE preincubated with ligand, added 30 min to wells with immobilised oxytocin, HRP-anti-RAGE, n = 3
Chain of human esRAGE (Q15109 23-347 isoform Q15109-3 limits assumed): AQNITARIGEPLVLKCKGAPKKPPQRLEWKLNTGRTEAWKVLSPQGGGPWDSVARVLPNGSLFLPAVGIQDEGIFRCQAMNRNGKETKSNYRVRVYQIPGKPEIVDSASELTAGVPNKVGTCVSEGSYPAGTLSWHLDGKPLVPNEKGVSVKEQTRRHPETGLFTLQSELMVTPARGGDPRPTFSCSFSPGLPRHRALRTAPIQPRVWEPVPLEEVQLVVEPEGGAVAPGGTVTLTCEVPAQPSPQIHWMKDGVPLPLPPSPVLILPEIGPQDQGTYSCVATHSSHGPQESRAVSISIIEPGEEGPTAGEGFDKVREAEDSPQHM
Description: RAGE ligands were S100B (Sigma-Aldrich, St. Louis, MO, USA)[30], AGE-BSA (glyceraldehyde-derived AGE-BSA)[27],[32],[41], amyloid β 1-42 (Sigma-Aldrich), and high-mobility group box 1 (HMGB1, Sigma-Aldrich)[42].
Supplementary Figure 3. (a–d) Plate competition assays. Preincubation mixtures of esRAGE (1 mg/ml) with indicated concentrations of S100B (a),AGE-BSA (AGE) (b), amyloid b (c),or high-mobility group box 1 (HMGB1) (d) were added into wells for 30 min on which […]
The formation of oxytocin–RAGE complexes was detected with horseradish peroxidase (HRP)-conjugated anti-RAGE antibody (n = 3). All […]
and C2 domains (30 mg/ml) were used with this system (n = 3). The formation of oxytocin– RAGE complexes was detected with horseradish peroxidase (HRP)-conjugated anti-RAGE antibody (n = 3). *P < 0.05. Allgraphs show mean ± SEM.
(1 picture or pasted object on this page, not shown here)

[2] = biological target: human endogenous soluble RAGE (esRAGE), recombinant (human); assay: SPR; human esRAGE amine-coupled to a CM5 chip (~5000 RU), oxytocin flowed over; BIAcore 2000; 10 mM HEPES pH 7.4, 0.15 M NaCl, 3 mM EDTA, 0.005% surfactant P-20; 25 °C, 20 μl/min; apparent KD
[3] = [13C,15N]oxytocin in CSF after subcutaneous injection, LC-MS/MS; type: in vivo, mouse
Description: (§1) High MW proteins in diluted mouse plasma were precipitated with 2% TCA; supernatants obtained after centrifugation were analysed by LC-MS/MS. Mouse CSF samples diluted 1:5 with PBS (25 μl) were analysed directly. […] The eluting 1.0 ml fractions (Fig. 1h) were analysed by LC-MS/MS. The 25 μl samples were separated using a ZORBAX 300SB-C8 column (2.1 × 150 mm, 5 μm; CA, USA) eluted with a linear gradient of 0.1% (v/v) formic acid and acetonitrile (0–30%) at 0.3 ml/min and 50 °C.

soluble RAGE = biological target: T1, soluble RAGE (Homo sapiens, UniProt Q15109); assay: Gel permeation, anti-RAGE and esRAGE affinity chromatography of human serum with EIA and LC-MS/MS; type: binding; conditions: 50 ml human serum
T1 construct: from tissue; host or cells: human serum
T1 sequence (Q15109 23-347 isoform Q15109-3): as the sequence (Q15109 23-347 isoform Q15109-3 limits assumed) above
Description: Polypeptides were separated using a Superdex 75 pg HiLoad 26/600 column (GE Healthcare Japan, Tokyo) eluted at 1.0 ml/min with 5 mM ammonium acetate pH 7.8. […] Anti-RAGE monoclonal antibody (1.0 mg) or purified esRAGE (0.5 mg) were coupled to NHS-activated HiTrap (GE Healthcare). Sera samples (50 ml) from healthy consenting adults were applied to the HiTrap-anti-RAGE column equilibrated with 50 mM Tris–HCl (pH 7.4) and 0.15 M NaCl. Alternatively, the low molecular weight (<3000, Amicon Ultracel3K) fraction of human serum (50 ml) was applied to the HiTrap-esRAGE column previously equilibrated with phosphate-buffered saline (PBS). After washing the bound proteins were eluted with 100 mM glycine-HCl buffer (pH 2.5) for HiTrap-anti-RAGE or 10 mM Tris–HCl (pH 7.4) and 2.0 M NaCl for HiTrap-esRAGE and the eluates were analysed by EIA or LC-MS/MS and Western blotting.
as §1
Supplementary Figure 1. […]

[4] = system: monkey brain capillary endothelial cells; assay: In vitro blood-brain barrier (BBB) model (MBT-24H), transport between luminal and abluminal chambers, control or RAGE shRNA knockdown; conditions: 1.0 ng/ml in luminal chamber, 3 h, control vs RAGE knockdown, ELISA, n = 4
Description: EC, monkey brain capillary endothelial cells; Peri, rat brain pericytes; Astro, rat astrocytes. […] The endothelial cells used in the upper chamber in a were treated with RAGE shRNA (knockdown, KD) or control (C or CNT) vectors to assess the effects of RAGE knockdown. […] Values are mean ± SEM
For the in vitro BBB model (MBT-24H, PharmaCo-Cell Co., Nagasaki, Japan), rat brain pericytes (1.5 × 10^4 cells/cm^2) and rat astrocytes (1.5 × 10^4 cells/cm^2) were seeded on the bottom of the collagen-coated polyester membranes of Transwell inserts (Corning Life Sciences, MA, USA). After 16 h the cells firmly adherent, monkey brain vascular endothelial cells (1.5 × 10^5 cells/cm^2) were then seeded on the upper side of the inserts in 24-well culture plates. The in vitro BBB models were established within 4 days of seeding the cells according to the manufacturer’s instructions. Trans-endothelial electrical resistance (TEER), which primarily reflects the flux of sodium ions through the cell layers in the culture conditions, was measured with an epithelial-volt-ohm metre and an Endohm-6 chamber electrodes (World Precision Instruments, Sarasota, FL, USA). The TEERs of the coated, cell-free filters were subtracted from the measured TEER values of the models and shown as Ω cm^2. The apparent permeability constants (Papp) between luminal and abluminal chambers were calculated from the distribution ratios. Endothelial expression was silenced using RAGE shRNA and the pSilencer 3.0-H1 vector (Ambion, Austin, TX, USA)[41]. […]

oxytocin receptor = oxytocin receptor (UniProt P30559); conditions: cited from earlier work
Chain of oxytocin receptor (P30559 whole entry): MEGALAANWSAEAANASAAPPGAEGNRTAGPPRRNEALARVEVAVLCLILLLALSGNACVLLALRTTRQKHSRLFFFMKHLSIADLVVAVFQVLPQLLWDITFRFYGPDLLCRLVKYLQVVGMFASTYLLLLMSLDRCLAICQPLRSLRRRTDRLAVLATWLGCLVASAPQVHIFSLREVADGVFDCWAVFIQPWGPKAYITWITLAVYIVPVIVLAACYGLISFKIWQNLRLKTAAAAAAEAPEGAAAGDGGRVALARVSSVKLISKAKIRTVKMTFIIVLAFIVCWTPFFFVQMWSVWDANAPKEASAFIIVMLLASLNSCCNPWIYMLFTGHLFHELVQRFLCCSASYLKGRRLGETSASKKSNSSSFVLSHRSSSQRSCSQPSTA

[5] = biological target: oxytocin receptor (high affinity form) (UniProt P30559); conditions: cited from earlier work
Chain of oxytocin receptor (high affinity form) (P30559 whole entry): as above

Chain of oxytocin (P01178 whole entry, looked up): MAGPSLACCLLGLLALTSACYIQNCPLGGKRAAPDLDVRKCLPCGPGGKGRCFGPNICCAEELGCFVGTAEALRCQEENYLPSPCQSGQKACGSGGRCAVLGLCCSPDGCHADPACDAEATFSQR
Chain of Oxytocin (synthetic) (P01178 whole entry, looked up): as above

Compound: O=C1OC2(c3ccc(O)cc3Oc3cc(O)ccc32)c2ccccc21 [fluorescein, sodium fluorescein]
CSF/blood fluorescent ([1]; Ager-/- BCCAO): 0.0316% and 0.02179% and 0.01832% and 0.02493% | CSF/blood fluorescent ([1]; Ager-/- Sham): 0.03456% and 0.01791% and 0.02565% | CSF/blood fluorescent ([1]; WT BCCAO): 0.02918% and 0.03954% and 0.02602% | CSF/blood fluorescent (relative fluorescence units, CSF value/serum value) ([1]; WT Sham, 200 μl of 6 mg/ml via retro-orbital venous sinus, 60 min): 0.03234% and 0.009373% and 0.03651% and 0.03497% and 0.03069% and 0.01619%

Compound: HMGB1: high-mobility group box 1, RAGE ligand (Sigma-Aldrich)
inhibition of oxytocin binding to soluble RAGE by RAGE ligand (human esRAGE): weakly or non-specifically inhibited

Compound: S100B: RAGE ligand S100B (Sigma-Aldrich)
inhibition of oxytocin binding to soluble RAGE by RAGE ligand (human esRAGE): weakly or non-specifically inhibited

Compound: [^13C,^15N]oxytocin
[13C,15N]oxytocin in CSF of Ager-/- male mice [3]: undetectable

Compound: arginine-vasopressin
identification in material eluted from immobilised esRAGE (human serum) (soluble RAGE): did not identify | transport by RAGE in the in vitro BBB assay system [4]: did not transport

Compound: oxytocin (from UniProt P01178)
Kd (oxytocin receptor): 100 nM | Kd [5]: 1 nM

Next, values leading:

inhibition of oxytocin binding to soluble RAGE by RAGE ligand (human esRAGE): weakly or non-specifically inhibited
Compound: AGEs: glyceraldehyde-derived AGE-BSA, RAGE ligand

Kd [2]: 179 nM
Compound: Oxytocin (synthetic) (from UniProt P01178 20-28) (peptide)

inhibition of oxytocin binding to soluble RAGE by RAGE ligand (human esRAGE): weakly or non-specifically inhibited
Compound: amyloid β 1-42
